Data published in US10654917B2, “Antibody molecules and peptide delivery systems for use in alzheimer's disease and related disorders” (TECHNOPHAGE, INVESTIGAÇĀO E DESENVOLVIMENTO EM …, priority 2015, dated 2020).
Values joined by “and” are separate entries in the source; they are usually repeats but may differ in a detail not shown here. Identical values can stand only once.

Columns and labels:
[1] = Features of peptides: isoelectric point, charge; assay type: physicochemical; conditions: original peptide
Excerpt: Table 7 lists each peptide's name, isoelectric point (PI), charge (number of positive residues), calculated mass (in Da), and ion found; as well as the name, calculated mass, and found ion for the corresponding conjugate; and also retention times in HPLC and the partition coefficient (log Po/w). These values allowed the determination of the hydrophilic nature of peptides, where pepH1 and pepH4 were identified as the most hydrophilic peptides.

[2] = test system: in vitro model of the BBB (bEnd3 cells); experiment: Transmigration of radiolabelled peptides across in vitro BBB model; assay type: in vitro ADME; conditions: for overpass in the control (no cells): 5 h
Procedure: Using the same in vitro model of the BBB described above, peptides labelled with technetium and gallium were tested for the ability to cross endothelial barrier. For each peptide, bEnd3 cells cultured on “tissue culture inserts” were incubated with 5 ρCimL^−1-labelled peptide for different incubation times: 15 min, 5 h and 24 h. As a control, the model without cells was used (Control no cells) or (Filters) and compared to models with cells (BBB) or (Cells).
FIGS. 21A-21F show the percent activity of the radioisotope technetium-labelled peptides at the apex and base after 5 hours of incubation with the in vitro model described above, using the BBB-model or no cells (as a control); and values were obtained from two independent assays. […] Moreover, the results indicated promising candidates. Specifically, for each of pepH1 and pepH3, there was an overpass of 50% in the control, compared with only 20% in the presence of a cell barrier. The translocation of pepH2 was not observed in either the control nor in the BBB model.
Results for the incubations of 15 minutes, 5 hours, and 24 hours are shown together in FIGS. 22A-22F. That is, FIGS. 22A-22F show the percent activity of the radioisotope technetium-labelled peptides at the apex and base after 15 minutes, 5 hours, and 24 hours of incubation with the in vitro model described above, using the BBB-model or no cells (as a control); and values were obtained from two independent assays. Differences again were observed, confirming the integrity of the barrier, as well as identifying peptides that crossed the barrier. […] PepR′ thus was excluded from further tests.
(§1) Table 9 summarizes results regarding uptake (internalization) and cellular interaction, as well as transmigration across an in vitro model for BBB, for peptides labelled with technetium and gallium, after 15 minutes, 5 hours, and 24-hours of incubation, based on percent recovery of radiopeptide. The Table lists the peptides, providing each peptide's name, % BBB transmigration, % cellular interaction, and % internalized, each after […], 5 hours, and 24 hours of incubation.

bEnd3 cells = experiment: Uptake test: cellular interaction (acid wash) and internalization (lysate); assay type: cell-based
Procedure: In addition to testing models of BBB, an uptake test was performed to determine the internalizing ability of the candidate peptides. BEnd3 cells were cultured in 24 well plates. At each time point, the medium containing the peptide, which had not interacted with the cells, was collected. In the next step, the cells were washed with an acidic buffer that releases peptides more strongly bound to the cell membrane (sample acid wash). Finally, the cells were lysed to release internalized peptides and to quantify the activity inside the cells. Results are showing in FIGS. 23A-23E.
FIGS. 23A-23E show percent activity of the radioisotope technetium-labelled peptides in the media, wash buffer (acid wash) and lysate, after 15 minutes, 5 hours, and 24 hours of incubation with bEnd3 cells; and values were obtained from two independent assays. […] PepM′, as well as showing high transmigration (about 50%), also appeared to become internalized and accumulated within the cells (about 13% of radioactivity in the lysate).
as §1

[3] = Partition coefficient Kp by intrinsic trp fluorescence; assay type: physicochemical
Procedure: For the pepH3, the “partition coefficient” or “affinity constant” also was determined, since this peptide intrinsically presents a tryptophan and, thus, successful administrations of the lipid compositions allowed determination of pepH3's affinity constant.
PepH2 and pepH3 are the most hydrophobic peptides (Po/w). In addition, pepH2 interacts with various lipid compositions of membrane models, while pepH3 only interacts with membranes rich in PS (a negatively charged phospholipid).

[4] = Biodistribution of technetium-labelled peptides; assay type: in vivo, CD1 mice; conditions: for excreted: after 60 min; for brain uptake: after 2 min; for brain washout: mouse, in vivo
Procedure: To evaluate the capacity to cross the BBB in vivo, the selected peptides, pepH1 and pepH3, were analyzed for biodistribution in CD1 mice. The peptides were labelled with technetium at a final concentration of 8.5×10^−5 M and diluted in PBS. CD1 mice were injected (iv injection, tail vein). The mice were sacrificed by cervical dislocation after 5 and 60 minutes of incubation. The tissues of interest were dissected and washed to remove excess blood, weighed, and measured for radioactivity. Technetium radioactivity of the different peptides was measured for different organs.
Initial results are presented in Table 11, where “% I.A. refers to the “% injected activity”, that is, the amount of radioactivity measured in a given organ compared to the total originally injected.
The biodistribution studies were repeated, using higher doses of each peptide, specifically, a one hundred fold increase, as well as using PepH2 as a negative control, and allowing incubation for 2 minutes and 60 minutes. Tissue biodistribution profile in percentage of injected radiopeptide activity per gram of tissue/organ was measured and results are presented in Table 12.

[5] = Stability in blood and urine after injection, HPLC; assay type: in vivo, mice; conditions: 5 and 60 minutes following injection
Procedure: Finally, stability of the peptides was determined. Urine and blood were taken from the animals after death, filtered, and analyzed by RT-HPLC. HPLC analysis was conducted to assess the stability of pepH1 and pepH3 peptides in blood and urine, 5 and 60 minutes post-administration, compared to the respective original preparations.
FIGS. 28A-28D show the profile of pepH1 and pepH3 each in its original preparation, prior to injection into the animals, and then after 5 and 60 minutes following injection in the blood and urine.

BAP42 = target: T1, BAP42 (Homo sapiens, UniProt P05067); experiment: Thioflavin T assay of BAP42 aggregation inhibition; assay type: biochemical; conditions: proportions 1:5 and 1:20 sdAb:BAP42
T1 construct: “beta-amyloid peptide 42”, or “beta-amyloid peptide 1-42”
Procedure: Once purified and verified in recognizing BAP42 oligomers, anti-oligomer antibodies were purified were tested for their ability to inhibit aggregation of the peptide to fibrillar forms. This assay was performed using the thioflavin T (ThT), which, as discussed above, is a probe that recognizes rich “beta-sheet” secondary structures, the structure indeed characteristic of fibrillar BAP42. Accordingly, the greater aggregation inhibition by a candidate anti-oligomer sdAb, the less fibrils formed, and thus the smaller the signal emitted by ThT during the assay. Other selected anti-oligomer sdAbs show similar aggregation inhibition.
Anti-oligomers also were tested for their ability to inhibit aggregation of BAP42. This assay was performed using Thioflavin T (ThT), which, as described above, recognizes beta-sheet rich structures, characteristic of fibrillar form of BAP42, so that the ability of sdAbs to inhibit aggregation can be assessed. Specifically, the more aggregation is inhibited, the smaller the signal emitted by ThT. Two proportions were tested, namely, 1:5 (one molecule for sdAb for every 5 BAP42 molecules) and 1:20 (one molecule for sdAb for every 20 BAP42 molecules).

[6] = 140 μg (pepH1, pepH3) or 80 μg (pepH2)

T1 sequence (P05067 672-713 limits assumed): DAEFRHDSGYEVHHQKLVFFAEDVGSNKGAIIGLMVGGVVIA

Molecule | Charge (number of positive residues) [1] | PI (isoelectric point) [1] | BBB transmigration ([2]; 99mTc, 0.25 hours) [%] | overpass in the control (no cells) ([2]; 99mTc) [%] | BBB transmigration ([2]; 99mTc, 5 hours) [%] | BBB transmigration ([2]; 99mTc, 24 hours) [%] | BBB transmigration ([2]; GaCl3, 0.25 hours) [%] | BBB transmigration ([2]; GaCl3, 5 hours) [%] | BBB transmigration ([2]; GaCl3, 24 hours) [%] | where the radiopeptide is found in the uptake test (media, acid wash, lysate) (bEnd3 cells; 99mTc) | Cellular interaction (bEnd3 cells; 99mTc, 0.25 hours) [%] | Internalization (bEnd3 cells; 99mTc, 0.25 hours) [%] | Cellular interaction (bEnd3 cells; 99mTc, 5 hours) [%] | Internalization (bEnd3 cells; 99mTc, 5 hours) [%] | Cellular interaction (bEnd3 cells; 99mTc, 24 hours) [%] | Internalization (bEnd3 cells; 99mTc, 24 hours) [%] | Cellular interaction (bEnd3 cells; GaCl3, 0.25 hours) [%] | Internalization (bEnd3 cells; GaCl3, 0.25 hours) [%] | Cellular interaction (bEnd3 cells; GaCl3, 5 hours) [%] | Internalization (bEnd3 cells; GaCl3, 5 hours) [%] | further results
AGILKRW (Dengue virus 2; /note=“#PepH3 (PEP+)”) | 2 | 11 | 2.70 ± 0.0 | 50 | 9.16 ± 6.5 | 67.23 ± 1.2 | 1.87 ± 0.3 | 26.47 ± 0.4 | 72.63 ± 0.7 | mainly remained in the incubation medium | 1.50 ± 0.1 | 0.15 ± 0.1 | 1.15 ± 0.1 | 0.15 ± 0.1 | 0.60 ± 0.1 | 0.35 ± 0.2 | 0.26 ± 0.0 | 0.03 ± 0.0 | 0.73 ± 0.0 | 0.12 ± 0.0 | BBB transmigration ([2]; 99mTc, 5 hours, listed as pepH3): 20%; BBB transmigration ([2]; 99mTc, 24 hours, listed as pepH3): about 70%; Cellular interaction (bEnd3 cells; GaCl3, 24 hours): 0.60 ± 0.1%; Internalization (bEnd3 cells; GaCl3, 24 hours): 0.30 ± 0.1%; affinity constant for POPC:POPS (1:4) relative to other lipid compositions [3]: 5 times; Kp ± SD ([3]; Lipidic membrane POPC:POPS (1:4)): 1,558 and 1,558 ± 216; Kp ± SD ([3]; Lipidic membrane POPC:POPS (3:2)): 455 ± 46; Kp ± SD ([3]; Lipidic membrane POPC:POPS (4:1)): 324 and 342 ± 102; radioactivity in the brain ([4]; 140 μg (pepH1, pepH3) or 80 μg (pepH2), 2 min): 0.31% and 0.37%; excreted [4, 6]: 36%; brain uptake [4]: rapid brain uptake; brain washout [4]: rapid brain washout; stability in blood and urine [5]: stable in the blood and urine
VQQLTKRFSL (Dengue virus 2; /note=“#PepH1”) | 2 | 11 | 3.75 ± 0.5 | 50 | 24.3 ± 0.4 | 73.83 ± 9.4 | 1.13 ± 0.2 | 21.56 ± 0.4 | 71.47 ± 3.7 | mainly remained in the incubation medium | 0.63 ± 0.1 | 0.16 ± 0.0 | 0.30 ± 0.0 | 0.10 ± 0.0 | 0.38 ± 0.1 | 0.12 ± 0.0 | 0.25 ± 0.0 | 0.00 ± 0.0 | 0.80 ± 0.3 | 0.10 ± 0.0 | BBB transmigration ([2]; 99mTc, 5 hours, listed as pepH1): 20%; BBB transmigration ([2]; 99mTc, 24 hours, listed as pepH1): about 70%; BBB transmigration / translocation (summary of Table 9) ([2]; 24 h, both types of markings): about 70%; Cellular interaction (bEnd3 cells; GaCl3, 24 hours): 0.62 ± 0.0%; Internalization (bEnd3 cells; GaCl3, 24 hours): 0.16 ± 0.0%; excreted [4, 6]: 32.7%; brain uptake [4]: rapid brain uptake; brain washout [4]: rapid brain washout; stability in blood and urine [5]: stable in the blood and urine
FC5: sdAb from the literature binding BBB receptors; positive control for BBB transmigration, SEQ ID NO: 112 (protein, listed as Lama glama, /note=“#FC5”) VHH: ASEVQLQASGGGLVQAGGSLRLSCAASGFKITHYTMGWFRQAPGKEREFVSRITWGGDNTFYSNSVKGRFTISRDNAKNTVYLQMNSLKPEDTADYYCAAGSTSTATPLRVDYWGKGTQVTVSSLE | – | – | – | – | – | – | – | – | – | – | – | – | – | – | – | – | – | – | – | – | inhibition of BAP42 fibrillization (ThT signal) (BAP42): do not inhibit fibrillization
